The record followed here is patent publication US20140220070A1, “USE OF PLANT CELL MEMBRANE TREATMENT OF OBESITY” (Thylabisco AB, priority 2005, published 2014).

This assay addresses T1, pancreatic lipase (Homo sapiens, UniProt P16233).
T1 sequence (P16233 17-465): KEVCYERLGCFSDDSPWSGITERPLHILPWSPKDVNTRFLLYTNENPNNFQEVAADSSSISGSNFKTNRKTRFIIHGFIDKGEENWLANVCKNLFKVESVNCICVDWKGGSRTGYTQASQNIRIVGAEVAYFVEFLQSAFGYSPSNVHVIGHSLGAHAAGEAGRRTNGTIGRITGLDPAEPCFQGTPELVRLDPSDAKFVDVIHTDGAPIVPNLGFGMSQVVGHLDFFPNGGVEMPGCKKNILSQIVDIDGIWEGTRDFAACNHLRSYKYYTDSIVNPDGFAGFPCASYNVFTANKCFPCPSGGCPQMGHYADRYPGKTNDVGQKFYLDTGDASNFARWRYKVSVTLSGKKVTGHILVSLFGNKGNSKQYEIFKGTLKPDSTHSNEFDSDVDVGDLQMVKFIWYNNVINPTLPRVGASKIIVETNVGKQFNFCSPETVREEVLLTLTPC
The experiment in a line: Measurement of the lipase activity (pH stat, tributyrin). The assay is classed as biochemical. The note with it: increasing amounts of membranes/proteins, lipase + colipase, pH 7.0, curves only in FIG. 1-3. Here is the method:
The lipase activity was measured according to the following (Borgstrom B. and Erlanson C. European J. of Biochemistry 37: 60-68, 1973): 15 ml of an aqueous solution containing 1 mM Tris buffer pH 7.0, 1 mM calcium chloride, 150 mM sodium chloride, 4 mM sodiumtaurodeoxycholate, 0.5 μg lipase, 1 μg of colipase.
To this mixture 0.5 ml of tributyrin is added together with increasing amounts of membranes and the released fatty acids measured using a pH stat.

With “transhydrogenase: isolated membrane protein, transhydrogenase prepared from E. coli”, the “inhibition of pancreatic lipase” value is on record as “inhibition”.
